# Article PMC7369618
# Biological target: pyruvate kinase M2 (PKM2), endogenous in mouse macrophages (mouse (endogenous in BMDMs or Raw 264.7)) (UniProt P52480)
# Assay: cross-linking
# Sequence of pyruvate kinase M2 (PKM2), endogenous in mouse macrophages, P52480 1-531 (enzyme; other documents disagree on this pair) (P52480 whole entry): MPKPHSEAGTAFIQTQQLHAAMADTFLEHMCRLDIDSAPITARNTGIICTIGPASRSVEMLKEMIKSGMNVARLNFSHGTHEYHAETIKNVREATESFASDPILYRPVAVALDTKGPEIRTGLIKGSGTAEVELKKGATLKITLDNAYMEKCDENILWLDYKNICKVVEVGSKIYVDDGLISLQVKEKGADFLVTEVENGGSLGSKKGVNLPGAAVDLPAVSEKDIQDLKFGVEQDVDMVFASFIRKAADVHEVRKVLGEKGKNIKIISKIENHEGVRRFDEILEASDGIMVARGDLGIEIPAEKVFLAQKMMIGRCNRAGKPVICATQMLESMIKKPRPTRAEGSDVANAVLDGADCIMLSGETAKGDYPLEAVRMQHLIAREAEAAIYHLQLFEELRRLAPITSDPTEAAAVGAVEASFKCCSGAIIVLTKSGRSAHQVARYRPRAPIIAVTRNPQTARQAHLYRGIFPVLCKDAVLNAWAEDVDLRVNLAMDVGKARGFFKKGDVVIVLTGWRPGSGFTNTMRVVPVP
substance,measurement,value
"pyruvate kinase M2 (PKM2), endogenous in mouse macrophages, P52480 1-531 (enzyme; other documents disagree on this pair)",stoichiometry N,4
